Results on two molecules are retold here after patent US20040102610A1 (Genentech, published 2004).

The target in one data set is T1, GST-hSu(fu) (UniProt Q9UMX1).
T1 sequence: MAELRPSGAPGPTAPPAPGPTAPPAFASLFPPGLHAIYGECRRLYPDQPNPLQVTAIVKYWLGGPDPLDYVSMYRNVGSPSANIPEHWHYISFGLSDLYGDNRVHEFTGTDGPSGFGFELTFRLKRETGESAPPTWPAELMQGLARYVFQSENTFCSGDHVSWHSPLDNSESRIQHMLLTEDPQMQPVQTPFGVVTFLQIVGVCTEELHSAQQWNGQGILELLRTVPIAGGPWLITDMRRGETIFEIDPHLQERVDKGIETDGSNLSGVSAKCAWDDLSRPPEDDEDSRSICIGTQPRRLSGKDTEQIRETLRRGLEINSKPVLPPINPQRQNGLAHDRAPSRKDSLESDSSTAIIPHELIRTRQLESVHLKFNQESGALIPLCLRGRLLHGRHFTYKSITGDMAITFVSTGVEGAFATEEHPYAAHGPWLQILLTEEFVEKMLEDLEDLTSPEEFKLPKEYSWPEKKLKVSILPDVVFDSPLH

In another data set the target is T2, hfused C-Flag (human, UniProt Q9NRP7 1-1315).
T2 construct: also called human fused C-Flag
T2 sequence: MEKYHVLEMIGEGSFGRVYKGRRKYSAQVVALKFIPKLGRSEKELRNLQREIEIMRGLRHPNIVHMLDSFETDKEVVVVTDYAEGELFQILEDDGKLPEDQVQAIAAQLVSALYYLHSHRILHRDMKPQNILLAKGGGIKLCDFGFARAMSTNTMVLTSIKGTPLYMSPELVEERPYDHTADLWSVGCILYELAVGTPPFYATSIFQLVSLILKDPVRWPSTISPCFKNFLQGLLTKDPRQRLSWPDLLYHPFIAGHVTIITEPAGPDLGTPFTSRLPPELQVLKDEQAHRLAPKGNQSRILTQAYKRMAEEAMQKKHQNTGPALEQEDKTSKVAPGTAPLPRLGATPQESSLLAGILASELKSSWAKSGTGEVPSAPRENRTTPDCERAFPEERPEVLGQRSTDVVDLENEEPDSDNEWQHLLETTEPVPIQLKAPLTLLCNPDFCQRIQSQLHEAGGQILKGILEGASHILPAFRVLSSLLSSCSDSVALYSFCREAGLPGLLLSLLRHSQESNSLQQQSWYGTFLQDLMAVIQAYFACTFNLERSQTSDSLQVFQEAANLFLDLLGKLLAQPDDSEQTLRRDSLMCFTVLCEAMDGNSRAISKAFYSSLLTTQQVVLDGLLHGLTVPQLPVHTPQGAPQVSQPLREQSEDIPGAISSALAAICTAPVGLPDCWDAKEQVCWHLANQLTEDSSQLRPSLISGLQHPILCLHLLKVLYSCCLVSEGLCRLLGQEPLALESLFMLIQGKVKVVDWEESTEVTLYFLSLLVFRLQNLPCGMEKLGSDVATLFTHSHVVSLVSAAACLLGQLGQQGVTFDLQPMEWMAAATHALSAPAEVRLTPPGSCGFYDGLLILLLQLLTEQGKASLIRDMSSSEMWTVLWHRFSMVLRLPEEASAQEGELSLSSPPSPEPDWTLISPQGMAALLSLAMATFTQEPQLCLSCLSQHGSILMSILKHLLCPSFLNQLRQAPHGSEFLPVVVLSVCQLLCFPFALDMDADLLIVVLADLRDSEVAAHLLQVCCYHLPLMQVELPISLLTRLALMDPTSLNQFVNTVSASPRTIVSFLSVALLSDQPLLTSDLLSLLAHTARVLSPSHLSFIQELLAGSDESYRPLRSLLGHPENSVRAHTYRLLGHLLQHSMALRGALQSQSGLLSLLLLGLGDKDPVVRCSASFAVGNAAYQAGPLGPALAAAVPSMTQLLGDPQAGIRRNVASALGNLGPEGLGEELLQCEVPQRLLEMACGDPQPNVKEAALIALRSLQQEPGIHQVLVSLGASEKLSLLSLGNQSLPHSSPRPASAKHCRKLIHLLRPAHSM
The experiment in a line: 293 cells, anti-Myc or anti-Flag IP, immunoblot. The source says: (§1) FIG. 14 describes the biochemical interaction of hFu, hSu(fu) and hGli-1. FIG. 14(A) depicts the interaction of hFu with hSu(fu) in mammalian cells. 293 cells were transfected with hfused and hSu(fu) C-Flag or hfused C-Flag and hSu(fu) C-Myc either alone or in combination. Cell lysates were subjected to anti-Flag immunoprecipitation, and co-precipitating proteins were detected by immunoblotting. FIG. 14(B) depicts the interaction of hfused with hGli-1 in mammalian cells. 293 cells were transfected with hfused C-Flag or N-Myc hGli-1 both alone or in combination, and immunoprecipitated with anti-Myc or anti-Flag antibodies. Proteins were detected by immunoblotting. […] 293 cells were transfected with N-Myc hGli-1, hSu(fu) C-Flag and increasing amounts of hfused. The amount of hfused and hSu(fu) bound to hGli-1 was determined by anti-Myc immunoprecipitation and immunoblotting. Protein expression was analyzed by immunoblotting aliquots of total cell lysates (bottom panel).
(§2) For immunoprecipitation experiments human embryonic kidney 293 cells or C3H10T1/2 cells (ATCC 226-CCL) were transiently transfected with the various expression plasmids in 10 cm plates with lipofectamine (Gibco […]). For every transfection, the total amount of DNA was normalized with an expression plasmid encoding EGFP. […]

A further data set addresses T3, human fused (human, UniProt Q9NRP7 1-1315).
T3 construct: The same id is used for endogenous human fused of 293 cells in the GST-hSu(fu) pull-down; also called hfused; hFu
T3 sequence: T2 sequence
The experiment in a line: FIG. 14C: 293 cells transfected with N-Myc hGli-1, hSu(fu) C-Flag and increasing amounts of hfused.
From the text: as §1, §2

Consider purified PKAc (Upstate biotechnology), for which the “in vitro kinase assay with [γ-32P]ATP” value in the data set with GST-hSu(fu) is “when tested in vitro, GST-hSu(fu) was highly phosphorylated by purified PKAc”.

B1: N-Myc hGli-1 (other, human, UniProt P08151 1-1106, looked up, not shown: small tags and cut ends)
chain: MFNSMTPPPISSYGEPCCLRPLPSQGAPSVGTEGLSGPPFCHQANLMSGPHSYGPARETNSCTEGPLFSSPRSAVKLTKKRALSISPLSDASLDLQTVIRTSPSSLVAFINSRCTSPGGSYGHLSIGTMSPSLGFPAQMNHQKGPSPSFGVQPCGPHDSARGGMIPHPQSRGPFPTCQLKSELDMLVGKCREEPLEGDMSSPNSTGIQDPLLGMLDGREDLEREEKREPESVYETDCRWDGCSQEFDSQEQLVHHINSEHIHGERKEFVCHWGGCSRELRPFKAQYMLVVHMRRHTGEKPHKCTFEGCRKSYSRLENLKTHLRSHTGEKPYMCEHEGCSKAFSNASDRAKHQNRTHSNEKPYVCKLPGCTKRYTDPSSLRKHVKTVHGPDAHVTKRHRGDGPLPRAPSISTVEPKREREGGPIREESRLTVPEGAMKPQPSPGAQSSCSSDHSPAGSAANTDSGVEMTGNAGGSTEDLSSLDEGPCIAGTGLSTLRRLENLRLDQLHQLRPIGTRGLKLPSLSHTGTTVSRRVGPPVSLERRSSSSSSISSAYTVSRRSSLASPFPPGSPPENGASSLPGLMPAQHYLLRARYASARGGGTSPTAASSLDRIGGLPMPPWRSRAEYPGYNPNAGVTRRASDPAQAADRPAPARVQRFKSLGCVHTPPTVAGGGQNFDPYLPTSVYSPQPPSITENAAMDARGLQEEPEVGTSMVGSGLNPYMDFPPTDTLGYGGPEGAAAEPYGARGPGSLPLGPGPPTNYGPNPCPQQASYPDPTQETWGEFPSHSGLYPGPKALGGTYSQCPRLEHYGQVQVKPEQGCPVGSDSTGLAPCLNAHPSEGPPHPQPLFSHYPQPSPPQYLQSGPYTQPPPDYLPSEPRPCLDFDSPTHSTGQLKAQLVCNYVQSQQELLWEGGGREDAPAQEPSYQSPKFLGGSQVSPSRAKAPVNTYGPGFGPNLPNHKSGSYPTPSPCHENFVVGANRASHRAAAPPRLLPPLPTCYGPLKVGGTNPSCGHPEVGRLGGGPALYPPPEGQVCNPLDSLDLDNTQLDFVAILDEPQGLSPPPSHDQRGSSGHTPPPSGPPNMAVGNMSVLLRSLPGETEFLNSSA
notes: Expressed in C3H10T1/2 or 293 cells; also called human Gli-1
On to B1, for which the binding result with hfused C-Flag and with human fused was “binds” in each case.
